Data published in patent US20140087995A1 (published 2014).
Numbered stars: 1 amine (or outer) side, 2 acyl side, 3 side chain; on linkers, the order of the positions; unused ones are H or OH. Bridge positions count the residues as written; N and C are the ends. Side chains are listed from the residue outwards. Ends that are not written are not given here. * marks the point of attachment. C20 diacid = O=C(O)CCCCCCCCCCCCCCCCCCC(=O)*; γGlu = O=C(O)[C@H](CCC(=O)[*:2])N[*:1]; AEEA = NCCOCCOCC(=O)O

T1: human calcitonin receptor (human, UniProt P30988 25-474)
T1 sequence (looked up): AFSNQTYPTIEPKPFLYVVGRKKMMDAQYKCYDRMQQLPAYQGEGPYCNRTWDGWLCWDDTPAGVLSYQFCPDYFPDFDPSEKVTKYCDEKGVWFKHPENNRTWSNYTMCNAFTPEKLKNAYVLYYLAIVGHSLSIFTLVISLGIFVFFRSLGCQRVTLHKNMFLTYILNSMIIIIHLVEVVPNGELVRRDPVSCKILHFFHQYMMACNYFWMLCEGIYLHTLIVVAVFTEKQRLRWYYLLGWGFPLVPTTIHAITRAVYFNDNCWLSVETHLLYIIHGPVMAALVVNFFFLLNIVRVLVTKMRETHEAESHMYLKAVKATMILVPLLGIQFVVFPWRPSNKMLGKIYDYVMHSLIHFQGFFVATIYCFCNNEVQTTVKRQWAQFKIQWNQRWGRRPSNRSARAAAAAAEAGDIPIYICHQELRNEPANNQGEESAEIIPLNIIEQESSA


Target: T1, human calcitonin receptor
Test: cell-based or functional assay

Ratio hCT/hAmylin funct. | Binder
15.4 | K([AEEA-γGlu-C20 diacid])CNTATCATQRLAHFLRHSSPNFGAIPSSTNVGHNTY-NH2 (disulfide 2-7; N-terminus assumed; SMILES CC[C@H](C)[C@H](NC(=O)[C@H](C)NC(=O)CNC(=O)[C@H](Cc1ccccc1)NC(=O)[C@H](CC(N)=O)NC(=O)[C@@H]1CCCN1C(=O)[C@H](CO)NC(=O)[C@H](CO)NC(=O)[C@H](Cc1c[nH]cn1)NC(=O)[C@H](CCCNC(=N)N)NC(=O)[C@H](CC(C)C)NC(=O)[C@H](Cc1ccccc1)NC(=O)[C@H](Cc1c[nH]cn1)NC(=O)[C@H](C)NC(=O)[C@H](CC(C)C)NC(=O)[C@H](CCCNC(=N)N)NC(=O)[C@H](CCC(N)=O)NC(=O)[C@@H](NC(=O)[C@H](C)NC(=O)[C@@H]1CSSC[C@H](NC(=O)[C@@H](N)CCCCNC(=O)COCCOCCNC(=O)CC[C@H](NC(=O)CCCCCCCCCCCCCCCCCCC(=O)O)C(=O)O)C(=O)N[C@@H](CC(N)=O)C(=O)N[C@@H]([C@@H](C)O)C(=O)N[C@@H](C)C(=O)N[C@@H]([C@@H](C)O)C(=O)N1)[C@@H](C)O)C(=O)N1CCC[C@H]1C(=O)N[C@@H](CO)C(=O)N[C@@H](CO)C(=O)N[C@H](C(=O)N[C@@H](CC(N)=O)C(=O)N[C@H](C(=O)NCC(=O)N[C@@H](Cc1c[nH]cn1)C(=O)N[C@@H](CC(N)=O)C(=O)N[C@H](C(=O)N[C@@H](Cc1ccc(O)cc1)C(N)=O)[C@@H](C)O)C(C)C)[C@@H](C)O, Synthetic acylated analogue of human amylin; also called compound 80)
13.3 | K([γGlu-C20 diacid])CNTATCATQRLAHFLRHSSPNFGAIPSSTNVGHNTY-NH2 (disulfide 2-7; N-terminus assumed; SMILES CC[C@H](C)[C@H](NC(=O)[C@H](C)NC(=O)CNC(=O)[C@H](Cc1ccccc1)NC(=O)[C@H](CC(N)=O)NC(=O)[C@@H]1CCCN1C(=O)[C@H](CO)NC(=O)[C@H](CO)NC(=O)[C@H](Cc1c[nH]cn1)NC(=O)[C@H](CCCNC(=N)N)NC(=O)[C@H](CC(C)C)NC(=O)[C@H](Cc1ccccc1)NC(=O)[C@H](Cc1c[nH]cn1)NC(=O)[C@H](C)NC(=O)[C@H](CC(C)C)NC(=O)[C@H](CCCNC(=N)N)NC(=O)[C@H](CCC(N)=O)NC(=O)[C@@H](NC(=O)[C@H](C)NC(=O)[C@@H]1CSSC[C@H](NC(=O)[C@@H](N)CCCCNC(=O)CC[C@H](NC(=O)CCCCCCCCCCCCCCCCCCC(=O)O)C(=O)O)C(=O)N[C@@H](CC(N)=O)C(=O)N[C@@H]([C@@H](C)O)C(=O)N[C@@H](C)C(=O)N[C@@H]([C@@H](C)O)C(=O)N1)[C@@H](C)O)C(=O)N1CCC[C@H]1C(=O)N[C@@H](CO)C(=O)N[C@@H](CO)C(=O)N[C@H](C(=O)N[C@@H](CC(N)=O)C(=O)N[C@H](C(=O)NCC(=O)N[C@@H](Cc1c[nH]cn1)C(=O)N[C@@H](CC(N)=O)C(=O)N[C@H](C(=O)N[C@@H](Cc1ccc(O)cc1)C(N)=O)[C@@H](C)O)C(C)C)[C@@H](C)O, Synthetic acylated analogue of human amylin; also called compound 81)
